US20250250357A1 (NANJING ZAIMING PHARMACEUTICAL, published 2025)
Changes are numbered by the printed parent chain.

T1: human MSLN-R1-his protein (human, UniProt Q13421 296-390)
T1 construct: Made in HEK293E cells, purified on nickel column; also called hMSLN-R1-his; human MSLN-R1 protein; not shown: His tag
T1 chain: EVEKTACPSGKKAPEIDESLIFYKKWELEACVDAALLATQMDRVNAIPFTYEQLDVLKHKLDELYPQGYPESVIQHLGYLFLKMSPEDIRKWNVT

B1: S009-F7.2.3 chimeric antibody (antibody, human IgG1, kappa, V domains shown)
VH: ELQLVESGGDLVKPGGSLKLSCAASGFTFSSNGMSWLRQTPDKRLEWVATISSGGRYTYYPDSVKGRFTISRDNAKNTLYLQMSSLKSEDTAMYYCARRGIYDYFDCWGQGTTLTVSS
VL: DIQMTQSPASLSISVGETVTITCRASENIHSSLAWYQQKQGKSPQLLVYAATNLADGVPSRFSGSGSGSQYSLKINSLQSEDFGTYYCQHFWGTPWTFGGGTKLDIKR
notes: Human-murine chimeric antibody, human IgG1/kappa constant regions
B2: S009-F7.26.15 chimeric antibody (antibody, human IgG1, kappa, V domains shown)
VH: DVQLQESGPGLVKPSQTVFLTCTVTGISITTGNYRWSWIRQFPGNKLEWIGYIYYTGFITYNPSLTSRTTITRDTPKNQFFLEMKSLTAEDTATYYCARDDYDYDVFAYWGQGTLVTVSA
VL: DIQMTQSPASLSASVGETVTITCRASGNIHNYLAWYHQKQGKSPQFLVYKAKTLADGVPSRFSGSGSGTQYSLKINRLQPEDFGSYYCQHFLSIPLTFGAGTKLELKR
notes: as for B1
B3: S009-F7.18.10 chimeric antibody (antibody, human IgG1, kappa, V domains shown)
VH: QVQLQQSGAELVRPGTSVKVSCKASGYAFTNYLIEWVKQRPGQGLEWIGVINPGSGGTKYNEKFKGKATLTADKSSSTAYMQLSSLTSEDSAVYFCASDYDYDPFAYWGQGTLVTVSA
VL: DIVMTQSHKFMSTSVGDRVSITCKASQDVSTAVAWYQRKPGQSPKLLIYWASTRHTGVPDRFTGSGSGTDYTLTISYMQAEDLALYYCQQHYSTPYTFGGGTKLEIKR
notes: as for B1
B4: S009-F7.6.17 chimeric antibody (antibody, human IgG1, kappa, V domains shown)
VH: QVQLQQSGAELARPGASVKMSCKASGYTFTTYTMHWVKQRPGQGLEWIGYISPTGDFTKYNQKFKDKATLTTDKSSNTAFMQLSSLTSEDSAVYYCARWNGTVWFAYWGQGTLVTVSA
VL: DIVMTQSQKFMSTSVGDRVTVTCKASQALGTNVAWYQQKPGQSPKVLIYSASYRYSGVPYRFAGGGSGTDFTLTITNVQSEDLAEYFCQQYNNYPLTFGAGTKLELKR
notes: as for B1
B5: S009-F7.23.19 chimeric antibody (antibody, human IgG1, kappa, V domains shown)
VH: EVKLVESGGGLVQPGGSLSLSCAASGFTFTDYYMSWVRQPPGKALEWLGFIRSKANAYTTEYSASVKGRFTISRDNSQSILYLQMNDLRAEDSATYYCARYYYYGSGYVWYFDVWGTGTTVTVSS
VL: B4 VL with T20S, A28S, L29V, S43F, V46A, Y60D, A63T, G65S, T76I, N93S
notes: as for B1
B6: S009-F7.11.11 chimeric antibody (antibody, human IgG1, kappa, V domains shown)
VH: EVQLQQSGPELVKPGASVKIPCKASGYTITDYNMDWVKQSRGKSLEWIGDVFPYNGDSIYNQKFEGRATLTVDKYSSTAYMELRGLTSEDTAVYFCARRKTGTGYFDVWGTGTTVTVSS
VL: QLVLTQSPAIMSASPGEKVTLTCSASSSVSSTYLSWYLQKPGSSPKLWIYSTSNLASGVPARFSGSGSGTSYSLTISSMEAEDAASYFCHQWSSYPYTFGGGTKLEIKR
notes: as for B1
B7: S009-F7.12.13 chimeric antibody (antibody, human IgG1, kappa, V domains shown)
VH: EVQLQQSGPELVKPGASVKIPCKASGYTFTDYNMDWVKQSHGKGLEWIGDINPNTDDTIYNQKFNGKATLTVDKSSSTAYMELRSLTSEDTAVYYCSRRLIGTGYFDVWGTGTTVTVSS
VL: B6 VL with L2I, S30I, S35C, L38R, K46E, S94N, E106G, I107M
notes: as for B1
B8: S009-F7.21.16 chimeric antibody (antibody, human IgG1, kappa, V domains shown)
VH: QVQLQQPGTELVKPGASVKLSCKASGYTFTTFWMHWVKQRPGQGLEWIGGVNPTNGGTNYNEKFRTKATLTVDKSSTTADMQLSSLTSEDSAVYYCAPHYISSRPGFAYWGQGTLVTVSG
VL: DIVMTQSQKFMSTSGGDRVSVTCKASQNVGTNVAWYQQKPGQSPKALIYSASYRYSGVPDRFTGSGSGTDFILTISNVQSEDLAEYFCQQYNSYPLTFGGGTKLEIKR
notes: as for B1
B9: S009-F7.33.24 chimeric antibody (antibody, human IgG1, kappa, V domains shown)
VH: B8 VH with T31S, F32Y, G50N, T54S, T58S, R65K, T66N, T77S, S84N, S102G
VL: B8 VL with G15V, V33I, I72T, S76T, L104V
notes: as for B1
B10: S009-F7.30.5 chimeric antibody (antibody, human IgG1, kappa, V domains shown)
VH: QVQLQQPKTELVKPGASVKLSCKASGYIFTTYWMHWVKQRPGQGLEWIGNVNPSNGGTMYNEKFERRATLTVDKSSSTADMQLSSLTSEDSAVYYCVPHYIGSRPGFAYWGQGTLVTVSG
VL: B8 VL with G15V, Q38H, I48L, I72T, S76T
notes: as for B1

biological target: T2, human MSLN-FL-his protein (human, UniProt Q13421 296-580); test: ELISA, coated antigen, antibody 200 nM
T2 construct: Made in HEK293E cells, purified on nickel column; also called hMSLN-FL-his; human MSLN full-length protein; not shown: His tag
Target sequence in this assay (Q13421 other isoform, or with tags, fused parts or gaps): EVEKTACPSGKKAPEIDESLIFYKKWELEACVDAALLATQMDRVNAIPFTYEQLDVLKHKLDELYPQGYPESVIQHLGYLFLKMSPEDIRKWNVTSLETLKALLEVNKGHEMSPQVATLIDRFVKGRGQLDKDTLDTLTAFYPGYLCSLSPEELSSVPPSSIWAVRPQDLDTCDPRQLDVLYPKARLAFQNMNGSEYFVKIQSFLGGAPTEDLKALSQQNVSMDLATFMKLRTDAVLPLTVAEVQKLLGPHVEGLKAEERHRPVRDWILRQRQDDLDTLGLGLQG

Binder	OD450
B1	2.91
B2	2.39
B3	2.4
B4	2.75
B5	2.5
B6	2.62
B7	2.65
B8	2.42
B9	2.48
B10	2.36

Biological target: T1, human MSLN-R1-his protein
Test: ELISA, coated antigen, antibody 200 nM
Description: (§1) The plate was sealed with a plastic film and incubated at 4° C. overnight. The next day, the plate was washed twice with PBST, and a blocking buffer [PBS+2% (w/w) BSA] was added for blocking at room temperature for 2 h. The blocking buffer was discarded, and a chimeric antibody or negative control antibody serially diluted from 100 nM was added at 50 μL/well. After incubation at 37° C. for 2 h, the plate was washed 3 times with PBST. […] After incubation at 37° C. for 2 h, the plate was washed 5 times with PBST. A TMB substrate was added at 50 μL/well for incubation at room temperature for 5-10 min, and then a stop solution (1.0 N HCl) was added at 50 μL/well.

Binder	OD450
B1	0.1
B2	0.12
B3	2.77
B4	0.08
B5	0.08
B6	0.06
B7	0.06
B8	0.17
B9	0.15
B10	0.32

Biological target: T1, human MSLN-R1-his protein
Test: ELISA, coated antigen, antibody 20 nM
Description: as §1

Binder	OD450
B1	0.08
B2	0.06
B3	2.45
B4	0.06
B5	0.05
B6	0.06
B7	0.06
B8	0.06
B9	0.08
B10	0.1

Biological target: T1, human MSLN-R1-his protein
Test: ELISA, coated antigen, antibody 0.02 nM
Description: as §1

Binder	OD450
B1	0.06
B2	0.05
B3	2.05
B4	0.05
B5	0.05
B6	0.05
B7	0.05
B8	0.05
B9	0.06
B10	0.05

Biological target: T1, human MSLN-R1-his protein
Test: ELISA, coated antigen, antibody 0.0002 nM
Description: as §1

Binder	OD450
B1	0.06
B2	0.04
B3	0.38
B4	0.05
B5	0.05
B6	0.05
B7	0.05
B8	0.04
B9	0.06
B10	0.05

biological target: T2, human MSLN-FL-his protein; test: ELISA, coated antigen, no antibody (blank)
Description: as §1

Binder	OD450
B1	0.06
B2	0.06
B3	0.07
B4	0.08
B5	0.06
B6	0.08
B7	0.06
B8	0.08
B9	0.06
B10	0.06

biological target: T2, human MSLN-FL-his protein; test: ELISA, coated antigen, antibody 0.02 nM
Target sequence in this assay (Q13421 other isoform, or with tags, fused parts or gaps): as above
Description: as §1

Binder	OD450
B1	1.28
B2	1.76
B3	1.91
B4	1.78
B5	1.32
B6	0.41
B7	1.44
B8	1.39
B9	2.01
B10	1.77

Biological target: T1, human MSLN-R1-his protein
Test: ELISA, coated antigen, antibody 0.2 nM
Description: as §1

Binder	OD450
B1	0.06
B2	0.05
B3	2.46
B4	0.05
B5	0.05
B6	0.05
B7	0.05
B8	0.05
B9	0.05
B10	0.05

biological target: T2, human MSLN-FL-his protein; test: ELISA, coated antigen, antibody 2 nM
Target sequence in this assay (Q13421 other isoform, or with tags, fused parts or gaps): as above
Description: as §1

Binder	OD450
B1	2.5
B2	2.43
B3	2.28
B4	2.34
B5	2.4
B6	2.13
B7	2.21
B8	2.31
B9	2.54
B10	2.41

Biological target: T1, human MSLN-R1-his protein
Test: ELISA, coated antigen, no antibody (blank)
Description: as §1

Binder	OD450
B1	0.07
B2	0.06
B3	0.08
B4	0.07
B5	0.06
B6	0.07
B7	0.06
B8	0.07
B9	0.06
B10	0.06

Biological target: T1, human MSLN-R1-his protein
Test: ELISA, coated antigen, antibody 0.002 nM
Description: as §1

Binder	OD450
B1	0.06
B2	0.05
B3	1.17
B4	0.05
B5	0.05
B6	0.05
B7	0.05
B8	0.05
B9	0.06
B10	0.05

Biological target: T1, human MSLN-R1-his protein
Test: ELISA, coated antigen, antibody 2 nM
Description: as §1

Binder	OD450
B1	0.08
B2	0.05
B3	2.45
B4	0.05
B5	0.05
B6	0.05
B7	0.05
B8	0.05
B9	0.06
B10	0.06

biological target: T2, human MSLN-FL-his protein; test: ELISA, coated antigen, antibody 20 nM
Target sequence in this assay (Q13421 other isoform, or with tags, fused parts or gaps): as above

Binder	OD450
B1	2.5
B2	2.52
B3	2.29
B4	2.49
B5	2.46
B6	2.35
B7	2.19
B8	2.46
B9	2.53
B10	2.43

biological target: T2, human MSLN-FL-his protein; test: ELISA, coated antigen, antibody 0.002 nM
Target sequence in this assay (Q13421 other isoform, or with tags, fused parts or gaps): as above
Description: as §1

Binder	OD450
B1	0.41
B2	0.91
B3	0.97
B4	0.84
B5	0.41
B6	0.16
B7	0.6
B8	0.82
B9	1.06
B10	0.96

biological target: T2, human MSLN-FL-his protein; test: ELISA, coated antigen, antibody 0.2 nM
Target sequence in this assay (Q13421 other isoform, or with tags, fused parts or gaps): as above

Binder	OD450
B1	2.3
B2	2.33
B3	2.33
B4	2.4
B5	2.22
B6	1.54
B7	2.14
B8	2.15
B9	2.6
B10	2.39

biological target: T2, human MSLN-FL-his protein; test: ELISA, coated antigen, antibody 0.0002 nM
Description: as §1

Binder	OD450
B1	0.15
B2	0.25
B3	0.31
B4	0.22
B5	0.11
B6	0.08
B7	0.15
B8	0.35
B9	0.26
B10	0.36
